Data reported in KR20190105077A.

Assays:
Assay in all cases: cell-based or functional assay
[1] = target: 인간 PD-1 (human PD-1) (human) (UniProt Q15116)
[2] = target: 배양된 세포에 의해 내인적으로 생성되는 TGF-β
[3] = target: 인간 TGF-β1 (human TGF-β1) (human) (UniProt P01137)
Chain of UniProt P01137 (P01137 279-390 limits assumed): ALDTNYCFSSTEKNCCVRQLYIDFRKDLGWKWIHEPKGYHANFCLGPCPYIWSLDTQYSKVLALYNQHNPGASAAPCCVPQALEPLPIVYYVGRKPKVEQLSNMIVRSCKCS

Chain of UniProt Q15116 (Q15116 25-288): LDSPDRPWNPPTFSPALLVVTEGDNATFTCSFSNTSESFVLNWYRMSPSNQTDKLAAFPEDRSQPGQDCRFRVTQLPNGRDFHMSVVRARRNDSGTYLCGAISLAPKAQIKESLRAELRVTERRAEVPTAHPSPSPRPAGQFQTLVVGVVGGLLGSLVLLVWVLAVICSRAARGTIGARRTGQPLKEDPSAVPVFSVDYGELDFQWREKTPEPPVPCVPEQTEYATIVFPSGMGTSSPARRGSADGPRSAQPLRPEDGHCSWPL

NFAT-루시퍼라제 상대 발광 단위, 인간 PD-1 발현 Jurkat T 세포와 인간 PD-L1 발현 CHO-K1 세포의 24시간 공동-배양 [1] [RLU] | 루시퍼라제 활성의 배율 변화, 항-hPD-1 항체 대 이소형 대조군 (234963 RLU) [1] | 루시퍼라제 활성의 배율 변화, 항-hPD-1 항체 대 항체 부재 (206043 RLU) [1] | iTreg(FOXP3+CD25+) 백분율, 자극된 인간 CD4+ T 세포, 항체 50 ㎍/㎖, 외인성 TGF-β 없음 (항체 없이 15%) [2] [%] | NFAT-루시퍼라제 상대 발광 단위, 18 ng/㎖ TGF-β1로 12일 사전-처리된 Jurkat T 세포, 항-PD-1 Ab 존재 하 CHO-K1 공동-배양 (Ab 부재: 638866) [3] [RLU] | iTreg(CD25+FOXP3+) 백분율, 자극된 인간 CD4+ T 세포 + 2 ng/㎖ 인간 TGF-β1, 항체 200 ㎍/㎖ 및 6.25 ㎍/㎖ (항체 없이 55%) [3] [%] | Substance
866000 | 3.69 배 | 4.2 배 |  |  |  | 마우스 항-hPD-1 IgG (BioLegend Cat#329912) (antibody)
 |  |  | 20 | 639000 | 60 | 항-HEL hIgG4 (인간 IgG4, 카파 항-계란 라이소자임 항체, Crown Bioscience) (antibody)
